Consider 19 molecules from patent US20260209348A1 (University of California, published 2026).

First the molecules themselves.
B1: grafted humanized 6E6: VH3-21*01 (extended) + VK1-12*01 (IMGT) (antibody, V domains shown)
VH: EVQLVESGGGLVKPGGSLRLSCAASGFTFSNYGMSWVRQAPGKGLEWVSTISSGGGYTHYVDSVKGRFTISRDNAKNSLYLQMNSLRAEDTAVYYCARHPRDFSYAMDYWGQGTTVTVSS
VL: DIQMTQSPSSVSASVGDRVTITCRASQDVGHYLAWYQQKPGKAPKLLIYWASSLQSGVPSRFSGSGSGTDFTLTISSLQPEDFATYYCQQYNIYPWTFGQGTKVEIK
notes: expressed as IgG
B2: grafted humanized 6E6: VH3-11*03 (IMGT) + VK1-8*01 (IMGT) (antibody, V domains shown)
VH: QVQLLESGGGLVKPGGSLRLSCAASGFTFSNYGMSWIRQAPGKGLEWVSYISSGGGYTNYADSVKGRFTISRDNAKNSLYLQMNSLRAEDTAVYYCARHPRDFSYAMDYWGQGTTVTVSS
VL: AIRMTQSPSSFSASTGDRVTITCRASQDVGHYLAWYQQKPGKAPKLLIYWASTLQSGVPSRFSGSGSGTDFTLTISCLQSEDFATYYCQQYNIYPWTFGQGTKVEIK
notes: expressed as IgG
B3: grafted humanized 6E6: VH3-21*01 (extended) + VK1-12*01 (extended) (antibody, V domains shown)
VH: EVQLVESGGGLVKPGGSLRLSCAASGFTFSNYGMSWVRQAPGKGLEWVSTISSGGGYTHYVDSVKGRFTISRDNAKNSLYLQMNSLRAEDTAVYYCARHPRDFSYAMDYWGQGTTVTVSS
VL: DIQMTQSPSSVSASVGDRVTITCKASQDVGHYVAWYQQKPGKAPKLLIYWASTRHTGVPSRFSGSGSGTDFTLTISSLQPEDFATYYCQQYNIYPWTFGQGTKVEIK
notes: expressed as IgG
B4: grafted humanized 6E6: VH3-11*03 (IMGT) + VK3-15*01 (IMGT) (antibody, V domains shown)
VH: QVQLLESGGGLVKPGGSLRLSCAASGFTFSNYGMSWIRQAPGKGLEWVSYISSGGGYTNYADSVKGRFTISRDNAKNSLYLQMNSLRAEDTAVYYCARHPRDFSYAMDYWGQGTTVTVSS
VL: EIVMTQSPATLSVSPGERATLSCRASQDVGHYLAWYQQKPGQAPRLLIYWASTRATGIPARFSGSGSGTEFTLTISSLQSEDFAVYYCQQYNIYPWTFGQGTKVEIK
notes: expressed as IgG
B5: grafted humanized 6E6: VH3-21*01 (IMGT) + VK1-8*01 (IMGT) (antibody, V domains shown)
VH: EVQLVESGGGLVKPGGSLRLSCAASGFTFSNYGMNWVRQAPGKGLEWVSSISSGGGYTYYADSVKGRFTISRDNAKNSLYLQMNSLRAEDTAVYYCARHPRDFSYAMDYWGQGTTVTVSS
VL: AIRMTQSPSSFSASTGDRVTITCRASQDVGHYLAWYQQKPGKAPKLLIYWASTLQSGVPSRFSGSGSGTDFTLTISCLQSEDFATYYCQQYNIYPWTFGQGTKVEIK
notes: expressed as IgG
B6: grafted humanized 6E6: VH3-11*03 (extended) + VK3-15*01 (IMGT) (antibody, V domains shown)
VH: QVQLLESGGGLVKPGGSLRLSCAASGFTFSNYGMSWIRQAPGKGLEWVSTISSGGGYTHYVDSVKGRFTISRDNAKNSLYLQMNSLRAEDTAVYYCARHPRDFSYAMDYWGQGTTVTVSS
VL: EIVMTQSPATLSVSPGERATLSCRASQDVGHYLAWYQQKPGQAPRLLIYWASTRATGIPARFSGSGSGTEFTLTISSLQSEDFAVYYCQQYNIYPWTFGQGTKVEIK
notes: expressed as IgG
B7: grafted humanized 6E6: VH3-21*01 (extended) + VK3-15*01 (IMGT) (antibody, V domains shown)
VH: EVQLVESGGGLVKPGGSLRLSCAASGFTFSNYGMSWVRQAPGKGLEWVSTISSGGGYTHYVDSVKGRFTISRDNAKNSLYLQMNSLRAEDTAVYYCARHPRDFSYAMDYWGQGTTVTVSS
VL: EIVMTQSPATLSVSPGERATLSCRASQDVGHYLAWYQQKPGQAPRLLIYWASTRATGIPARFSGSGSGTEFTLTISSLQSEDFAVYYCQQYNIYPWTFGQGTKVEIK
notes: expressed as IgG
B8: grafted humanized 6E6: VH3-11*03 (IMGT) + VK1-12*01 (extended) (antibody, V domains shown)
VH: QVQLLESGGGLVKPGGSLRLSCAASGFTFSNYGMSWIRQAPGKGLEWVSYISSGGGYTNYADSVKGRFTISRDNAKNSLYLQMNSLRAEDTAVYYCARHPRDFSYAMDYWGQGTTVTVSS
VL: DIQMTQSPSSVSASVGDRVTITCKASQDVGHYVAWYQQKPGKAPKLLIYWASTRHTGVPSRFSGSGSGTDFTLTISSLQPEDFATYYCQQYNIYPWTFGQGTKVEIK
notes: expressed as IgG
B9: grafted humanized 6E6: VH3-21*01 (extended) + VK1-8*01 (IMGT) (antibody, V domains shown)
VH: EVQLVESGGGLVKPGGSLRLSCAASGFTFSNYGMSWVRQAPGKGLEWVSTISSGGGYTHYVDSVKGRFTISRDNAKNSLYLQMNSLRAEDTAVYYCARHPRDFSYAMDYWGQGTTVTVSS
VL: AIRMTQSPSSFSASTGDRVTITCRASQDVGHYLAWYQQKPGKAPKLLIYWASTLQSGVPSRFSGSGSGTDFTLTISCLQSEDFATYYCQQYNIYPWTFGQGTKVEIK
notes: expressed as IgG
B10: grafted humanized 6E6: VH3-11*03 (extended) + VK1-12*01 (extended) (antibody, V domains shown)
VH: QVQLLESGGGLVKPGGSLRLSCAASGFTFSNYGMSWIRQAPGKGLEWVSTISSGGGYTHYVDSVKGRFTISRDNAKNSLYLQMNSLRAEDTAVYYCARHPRDFSYAMDYWGQGTTVTVSS
VL: DIQMTQSPSSVSASVGDRVTITCKASQDVGHYVAWYQQKPGKAPKLLIYWASTRHTGVPSRFSGSGSGTDFTLTISSLQPEDFATYYCQQYNIYPWTFGQGTKVEIK
notes: expressed as IgG
B11: grafted humanized 6E6: VH3-11*03 (extended) + VK1-8*01 (IMGT) (antibody, V domains shown)
VH: QVQLLESGGGLVKPGGSLRLSCAASGFTFSNYGMSWIRQAPGKGLEWVSTISSGGGYTHYVDSVKGRFTISRDNAKNSLYLQMNSLRAEDTAVYYCARHPRDFSYAMDYWGQGTTVTVSS
VL: AIRMTQSPSSFSASTGDRVTITCRASQDVGHYLAWYQQKPGKAPKLLIYWASTLQSGVPSRFSGSGSGTDFTLTISCLQSEDFATYYCQQYNIYPWTFGQGTKVEIK
notes: expressed as IgG
B12: grafted humanized 6E6: VH3-21*01 (IMGT) + VK3-15*01 (IMGT) (antibody, V domains shown)
VH: EVQLVESGGGLVKPGGSLRLSCAASGFTFSNYGMNWVRQAPGKGLEWVSSISSGGGYTYYADSVKGRFTISRDNAKNSLYLQMNSLRAEDTAVYYCARHPRDFSYAMDYWGQGTTVTVSS
VL: EIVMTQSPATLSVSPGERATLSCRASQDVGHYLAWYQQKPGQAPRLLIYWASTRATGIPARFSGSGSGTEFTLTISSLQSEDFAVYYCQQYNIYPWTFGQGTKVEIK
notes: expressed as IgG
B13: grafted humanized 6E6: VH3-21*01 (IMGT) + VK1-12*01 (IMGT) (antibody, V domains shown)
VH: EVQLVESGGGLVKPGGSLRLSCAASGFTFSNYGMNWVRQAPGKGLEWVSSISSGGGYTYYADSVKGRFTISRDNAKNSLYLQMNSLRAEDTAVYYCARHPRDFSYAMDYWGQGTTVTVSS
VL: DIQMTQSPSSVSASVGDRVTITCRASQDVGHYLAWYQQKPGKAPKLLIYWASSLQSGVPSRFSGSGSGTDFTLTISSLQPEDFATYYCQQYNIYPWTFGQGTKVEIK
notes: expressed as IgG
B14: grafted humanized 6E6: VH3-11*03 (IMGT) + VK1-12*01 (IMGT) (antibody, V domains shown)
VH: QVQLLESGGGLVKPGGSLRLSCAASGFTFSNYGMSWIRQAPGKGLEWVSYISSGGGYTNYADSVKGRFTISRDNAKNSLYLQMNSLRAEDTAVYYCARHPRDFSYAMDYWGQGTTVTVSS
VL: DIQMTQSPSSVSASVGDRVTITCRASQDVGHYLAWYQQKPGKAPKLLIYWASSLQSGVPSRFSGSGSGTDFTLTISSLQPEDFATYYCQQYNIYPWTFGQGTKVEIK
notes: expressed as IgG
B15: grafted humanized 6E6: VH3-11*03 (extended) + VK1-12*01 (IMGT) (antibody, V domains shown)
VH: QVQLLESGGGLVKPGGSLRLSCAASGFTFSNYGMSWIRQAPGKGLEWVSTISSGGGYTHYVDSVKGRFTISRDNAKNSLYLQMNSLRAEDTAVYYCARHPRDFSYAMDYWGQGTTVTVSS
VL: DIQMTQSPSSVSASVGDRVTITCRASQDVGHYLAWYQQKPGKAPKLLIYWASSLQSGVPSRFSGSGSGTDFTLTISSLQPEDFATYYCQQYNIYPWTFGQGTKVEIK
notes: expressed as IgG
B16: grafted humanized 6E6: VH3-21*01 (IMGT) + VK1-12*01 (extended) (antibody, V domains shown)
VH: EVQLVESGGGLVKPGGSLRLSCAASGFTFSNYGMNWVRQAPGKGLEWVSSISSGGGYTYYADSVKGRFTISRDNAKNSLYLQMNSLRAEDTAVYYCARHPRDFSYAMDYWGQGTTVTVSS
VL: DIQMTQSPSSVSASVGDRVTITCKASQDVGHYVAWYQQKPGKAPKLLIYWASTRHTGVPSRFSGSGSGTDFTLTISSLQPEDFATYYCQQYNIYPWTFGQGTKVEIK
notes: expressed as IgG
B17: h6E6-115 (antibody, V domains shown)
VH: EVQLVESGGGLVKPGGSLRLSCAASGFTFSGYGMSWVRQAPGKGLEWVSTISSGGGYTHYVTSVKGRFTISRDNAKNSLYLQMNSLRAEDTAVYYCARHPRDFSYALDYWGQGTTVTVSS
VL: EIVMTQSPATLSVSPGERATLSCRASQDVGHYLAWYQQKPGQAPRLLIYWASTRATGIPARFSGSGSGTEFTLTISSLQSEDFAVYYCQQYNIYPWTFGQGTKVEIK
notes: also called clone 115
B18: h6E6-110 (antibody, V domains shown)
VH: EVQLVESGGGLVKPGGSLRLSCAASGFTFSHYGVSWVRQAPGKGLEWVSTISSGGGYTHYAESVKGRFTISRDNAKNSLYLQMNSLRAEDTAVYYCARHPRDFSYAQDYWGQGTTVTVSS
VL: EIVMTQSPATLSVSPGERATLSCRASQDVGHYLAWYQQKPGQAPRLLIYWASTRATGIPARFSGSGSGTEFTLTISSLQSEDFAVYYCQQYNIYPWTFGQGTKVEIK
notes: also called clone 110
B19: h6E6-117 (antibody, V domains shown)
VH: EVQLVESGGGLVKPGGSLRLSCAASGFTFSVYGISWVRQAPGKGLEWVSTISSGGGYTHYAPSVKGRFTISRDNAKNSLYLQMNSLRAEDTAVYYCARHPRDFSYAMDYWGQGTTVTVSS
VL: EIVMTQSPATLSVSPGERATLSCKASQDVGHYVAWYQQKPGQAPRLLIYWASTRATGIPARFSGSGSGTEFTLTISSLQSEDFAVYYCQQYNIYPWTFGQGTKVEIK
notes: also called clone 117

T1 sequence (Q01974 34-403 limits assumed): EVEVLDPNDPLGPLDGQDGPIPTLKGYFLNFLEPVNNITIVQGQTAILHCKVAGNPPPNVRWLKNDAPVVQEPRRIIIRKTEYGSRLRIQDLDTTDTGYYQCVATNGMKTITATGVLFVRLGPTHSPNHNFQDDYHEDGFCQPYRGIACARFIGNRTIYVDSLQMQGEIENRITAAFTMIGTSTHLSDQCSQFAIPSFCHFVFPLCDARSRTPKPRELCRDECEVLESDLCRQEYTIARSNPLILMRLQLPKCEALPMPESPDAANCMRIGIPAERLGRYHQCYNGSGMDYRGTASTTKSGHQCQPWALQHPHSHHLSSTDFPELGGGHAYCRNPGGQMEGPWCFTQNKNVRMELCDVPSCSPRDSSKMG

One test concerns the target T1, human ROR2 (human, UniProt Q01974 34-403, limits assumed). As to the kind of experiment: SPR. (In SPR one partner is held on a chip, and binding of the other changes the refractive index at the surface.)
For orientation: Kd means a measure of binding affinity in units of concentration. A lower Kd goes with tighter binding. In the case of B1, binding was put at a Kd of 0.52 nM. With B2, the binding result was “no binding”. In turn, B3 registered a Kd of 0.67 nM. Still for that read-out and setting: the value for B4 was 64 nM. B5: the binding result is reported as “no binding”. B6 showed a Kd of 1.1 nM. For the molecule B7, the affinity, expressed as Kd, was 0.58 nM. The same measure, in the same setting: as for B8, the figure is 162 nM. Same read-out and setting: as for B9, the figure is 10 nM; as for B10, 2.1 nM. Same read-out and setting: as for B11, the figure is 1.1 nM. As to B12, the binding result is on record as “no binding”. Same read-out and setting: the value for B13 was “no binding”. For B14, the affinity, expressed as Kd, was 178 nM. Consider B15, for which the binding result is on record as “no binding”. The same measure, in the same setting: the value for B16 was “no binding”.

Another test has as its target T1, human ROR2. As to the kind of experiment: SPR. The source holds these as a separate data set. The gist of the method: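 Using surface plasmon resonance, the dissociation constant (Kd, nM) was determined for binding of humanized anti-human ROR2 monoclonal antibodies to human ROR2. These antibodies carry murine complementarity-determining regions in human acceptor frameworks and a human IgG1 constant region. No antigen format, concentrations, temperature, buffer or replicate count is stated.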
On to B17, for which the Kd was found to be 0.187 nM. Same read-out and setting: as for B18, the figure is 0.073 nM; as for B19, 0.323 nM.
